Positions count from the first letter of the chain named.
B1: mAb 251 (antibody, V domains shown)
VH: EVQILESGGGLVQPGGSLRLSCVASGFTFRSYVMSWVRRAPGRGLEWVSGISASGGNTYYADSVKGRFTISRDNSKNTLFLQMNGLRAEDTAVYYCAKLFSYYYYFMDVWGKGTTVTVSS
VL: SYELTQPLSVSVALGQTARITCGGNNIGSKDVHWYQQKPGQAPVLVIYRDSNRPSGIPERFSGSNSGNTATLTISGAQAGDEADYYCQVWDRRTAVFGGGTQLTAL
notes: VH/VL only
B2: mAb 263 (antibody, V domains shown)
VH: EVQLLESGGGLVQPGGSLRLSCTPSGITFNNYAMTWVRQAPGKGLEWVSGISVSGGSTYYADSVMGRFTISRDSSKTLYLQMNSLRAEDTAVYYCAKFHSHYYYYMDVWGKGTTVTVSS
VL: B1 VL with G76R
notes: VH/VL only
B3: mAb 264 (antibody, V domains shown)
VH: EVQLLESGGGLVQPGGSLRLSCVASGFTFRSSSMTWVRQAPGKGLEWVSGIRGSGGRTYDAESVKGRFTISRDNSKNTLYLQMNSLRAEDTAEYYCAKLYDYYNDYMDVWGKGTTVTVSS
VL: B1 VL with D31N, G76R, R92S, R93S
notes: VH/VL only
B4: mAb 261 (antibody, V domains shown)
VH: EVQLLESGGGFMQPGGSLRLSCAVSGFTFRTSSMAWVRQAPGKGLEWVSGIRGSGGRTYDAESVKGRFTISRDISKNTLYLQMNNLRAEDTAEYYCAKLYDYYNDFMDVWGKGTTVIVSA
VL: B1 VL with D31N, G76R, R92S, R93S
notes: VH/VL only
B5: mAb 262 (antibody, V domains shown)
VH: B3 VH with Q3R, V23A, T35A, A40D, S49T, E62D
VL: B1 VL with D31N, G76R, R92S, R93S
notes: VH/VL only
B6: mAb 259 (antibody, V domains shown)
VH: B3 VH with Q3L, V23A, N74I, L86V
VL: B1 VL with D31N, G76R, R92S, R93S
notes: VH/VL only
B7: mAb 252 (antibody, V domains shown)
VH: B1 VH with A53T
VL: B1 VL
notes: VH/VL only
B8: mAb 260 (antibody, V domains shown)
VH: B3 VH with T35A, T69I, N74T, A88G, Y95F
VL: B1 VL with D31N, G76R, R92S, R93S
notes: VH/VL only
B9: mAb 250 (antibody, V domains shown)
VH: QVQLVESGGGVVQPGRSLRLSCAASGFTFSTYGMHWVRQAPGKGLEWVAVLWSDGRSKYYADSVQGRFTISRDNSKNTLFLQMSSLRAEDTAVYYCAREPYYDFWSGYYTGYMDVWGKGTTVTVSS
VL: DIQMTQSPSSLSASVGDRVTITCRASQGIRNDLGWYQQKPGKAPKRLIYAASSLQGGVPSRFSGSGSGTEFTLTISSLQPEDFATYYCLQHNSYPRTFGQGTKVEIK
notes: VH/VL only
B10: mAb 240 (antibody, V domains shown)
VH: QGKLVESGGGVVQPGRSLRLSCVASGFTFSGYGMHWVRQAPNKGLEWVAIIYYDGKNKYYADSVKGRFTISRDNSKNTLYLQLNSLRAEDTAVYYCVRGPGYNWFDPWGQGTLVTVSS
VL: EIVLTQSPDFQSVTPKEKVTITCRASQNIGSSLHWYQQKPDQSPKLLIKHASQSFSGVPSRFSGSGSGTDFTLTINSLEAEDAATYYCHQSSSLPYTFGQGTKLEIK
notes: VH/VL only
B11: mAb 258 (antibody, V domains shown)
VH: EVQLLESGGGLVQPGGSLRLSCAASGFTFSNYAMNWVRQAPGKGLEWVSVISNSGGTRLYVDSVKGRFTISRDNSKNTLYLQMSSLRAADTAVYYCAKDAAAALYYYYFYYMDVWGKGTTVTVSS
VL: B10 VL with N28S, H50Y
notes: VH/VL only
B12: mAb 248 (antibody, V domains shown)
VH: B10 VH with G2V, N42G, A61V, P107H, S117A
VL: B10 VL with N28S, H50Y
notes: VH/VL only
B13: mAb 256 (antibody, V domains shown)
VH: QVQLQQSGPGLVKPSQTLSLTCAISGDSVSSNYASWNWIRQSPSRGLEWLGRTYYRSKWYNDFAVSVKSRVTINADTSKNQFSLHLSSVTPEDTAIYFCAREANGRGYFYYMDVWGKGTTVTVSS
VL: EIVLTQSPDFQSVTPKEKVTITCRASQSIGSSLHWYQQKPVQSPKLLIKYASQSISGVPSRFSGSGSGTVFTLTINSLEAEDAAAYFCHQSSGSPHTFGGGTKVEIK
notes: VH/VL only
B14: mAb 257 (antibody, V domains shown)
VH: B13 VH with K68R
VL: B13 VL with V41D
notes: VH/VL only; the printed VH holds a letter U
B15: mAb 266 (antibody, V domains shown)
VH: B13 VH with N61I, V71L, S87R
VL: B13 VL with V41D
notes: VH/VL only
B16: mAb 255 (antibody, V domains shown)
VH: B13 VH with L4V, N32K, V71I
VL: B13 VL with V41D
notes: VH/VL only
B17: mAb 267 (antibody, V domains shown)
VH: B13 VH with V29I, V71I, T72I, A75P, K79R, S87N, F98Y
VL: B13 VL with V41D, S65R, V70D
notes: VH/VL only

These binders were tested against T1, human CD3 expressed on cells (Jurkat cells; human primary T cells) (human, UniProt P07766 23-207; P04234 22-171; P09693 23-182) (assay: flow cytometry, 25 nM, Jurkat cells).
T1 construct: whole, on cells
T1 sequence (P07766 23-207, chain 1 of 3): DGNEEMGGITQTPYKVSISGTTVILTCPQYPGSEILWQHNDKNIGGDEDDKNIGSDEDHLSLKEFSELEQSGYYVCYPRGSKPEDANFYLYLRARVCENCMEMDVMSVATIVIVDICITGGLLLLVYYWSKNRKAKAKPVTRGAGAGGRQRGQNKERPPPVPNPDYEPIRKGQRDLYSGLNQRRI
T1 sequence (P04234 22-171, chain 2 of 3): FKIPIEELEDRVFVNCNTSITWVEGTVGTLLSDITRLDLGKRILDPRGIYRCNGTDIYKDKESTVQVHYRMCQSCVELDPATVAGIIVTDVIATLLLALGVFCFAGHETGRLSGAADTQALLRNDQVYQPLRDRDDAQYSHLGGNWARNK
T1 sequence (P09693 23-182, chain 3 of 3): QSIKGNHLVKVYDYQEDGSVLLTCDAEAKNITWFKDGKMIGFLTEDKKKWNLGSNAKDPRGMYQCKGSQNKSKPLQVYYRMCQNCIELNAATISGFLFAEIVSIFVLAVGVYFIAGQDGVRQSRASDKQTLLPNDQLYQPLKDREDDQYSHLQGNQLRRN
Outline: (§1)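 Binding reported as fold over isotype: median fluorescence intensity divided by isotype control, with ≥10 scored positive. Cells were exposed to 25 nM antibody in PBS/2% FBS, 30 min, 4 °C, before flow cytometric read-out.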
For B1, the “Binding (FOI)” value was 215 FOI. B2 was tested, and the “Binding (FOI)” value was 188 FOI. B3 was tested, and the “Binding (FOI)” value was 174 FOI. B4 was tested, and the “Binding (FOI)” value was 188 FOI. In the case of B5, the “Binding (FOI)” value is reported as 165 FOI. For B6, the “Binding (FOI)” value was 169 FOI. B7 was tested, and the “Binding (FOI)” value was 184 FOI. For B8, the “Binding (FOI)” value was 178 FOI. With B9 the “Binding (FOI)” value was 125 FOI. With B10 the “Binding (FOI)” value was 177 FOI. With B11 the “Binding (FOI)” value was 147 FOI. In the case of B12, the “Binding (FOI)” value is reported as 174 FOI. For B13, the “Binding (FOI)” value was 61.5 FOI. For B14, the “Binding (FOI)” value was 62.3 FOI. In the case of B15, the “Binding (FOI)” value is reported as 85 FOI. B16 was tested, and the “Binding (FOI)” value was 162 FOI. B17 was tested, and the “Binding (FOI)” value was 61.3 FOI.

These binders were tested against T2, cynomolgus monkey CD3 expressed on cyno primary T cells (cynomolgus monkey, UniProt Q95LI5 22-198; Q95LI8 22-171; Q95LI7 23-181) (assay: flow cytometry, cyno primary T cells).
T2 construct: whole, on cells; CD3 complex on purified cynomolgus monkey CD3 pan T cells; also called cyno CD3
T2 sequence (Q95LI5 22-198, chain 1 of 3): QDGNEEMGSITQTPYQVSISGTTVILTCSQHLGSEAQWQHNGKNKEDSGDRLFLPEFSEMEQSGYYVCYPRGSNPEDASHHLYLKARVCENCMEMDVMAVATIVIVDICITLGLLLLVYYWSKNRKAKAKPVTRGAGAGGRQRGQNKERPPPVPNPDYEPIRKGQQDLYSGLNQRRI
T2 sequence (Q95LI8 22-171, chain 2 of 3): as the sequence (P04234 22-171, chain 2 of 3) above, with I5V, N15K, I20V, S32T, D33N, I34N, T64A, S74N, V83L, H141R counted along it
T2 sequence (Q95LI7 23-181, chain 3 of 3): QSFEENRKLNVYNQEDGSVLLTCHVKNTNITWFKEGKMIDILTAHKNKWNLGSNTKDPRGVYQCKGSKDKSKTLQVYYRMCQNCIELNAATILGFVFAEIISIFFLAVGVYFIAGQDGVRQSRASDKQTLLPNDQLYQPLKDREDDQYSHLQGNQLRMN
Outline: as §1
B1: no binding (tested: FOI <10 (FOI >=10 = positive); 25 nM). B2: no binding (tested: FOI <10 (FOI >=10 = positive); 25 nM). B3: no binding (tested: FOI <10 (FOI >=10 = positive); 25 nM). B4: no binding (tested: FOI <10 (FOI >=10 = positive); 25 nM). B5: no binding (tested: FOI <10 (FOI >=10 = positive); 25 nM). B6: no binding (tested: FOI <10 (FOI >=10 = positive); 25 nM). B7: no binding (tested: FOI <10 (FOI >=10 = positive); 25 nM). B8: no binding (tested: FOI <10 (FOI >=10 = positive); 25 nM). B9: no binding (tested: FOI <10 (FOI >=10 = positive); 25 nM). B10: no binding (tested: FOI <10 (FOI >=10 = positive); 25 nM). B11: no binding (tested: FOI <10 (FOI >=10 = positive); 25 nM). B12: no binding (tested: FOI <10 (FOI >=10 = positive); 25 nM). B13: no binding (tested: FOI <10 (FOI >=10 = positive); 25 nM). B14: no binding (tested: FOI <10 (FOI >=10 = positive); 25 nM). B15: no binding (tested: FOI <10 (FOI >=10 = positive); 25 nM). B16: no binding (tested: FOI <10 (FOI >=10 = positive); 25 nM). B17: no binding (tested: FOI <10 (FOI >=10 = positive); 25 nM).

What follows are binders tested against T1, human CD3 expressed on cells (Jurkat …) (assay: flow cytometry, 25 nM, human primary T cells).
Outline: as §1
B1 was tested, and the “Binding (FOI)” value was 297 FOI. B2 was tested, and the “Binding (FOI)” value was 248 FOI. For B3, the “Binding (FOI)” value was 220 FOI. B4 was tested, and the “Binding (FOI)” value was 229 FOI. B5 was tested, and the “Binding (FOI)” value was 219 FOI. In the case of B6, the “Binding (FOI)” value is reported as 214 FOI. In the case of B7, the “Binding (FOI)” value is reported as 270 FOI. B8 was tested, and the “Binding (FOI)” value was 219 FOI. For B9, the “Binding (FOI)” value was 109 FOI. For B10, the “Binding (FOI)” value was 216 FOI. For B11, the “Binding (FOI)” value was 113 FOI. For B12, the “Binding (FOI)” value was 203 FOI. With B13 the “Binding (FOI)” value was 73 FOI. For B14, the “Binding (FOI)” value was 77.7 FOI. For B15, the “Binding (FOI)” value was 71.9 FOI. For B16, the “Binding (FOI)” value was 198 FOI. In the case of B17, the “Binding (FOI)” value is reported as 88.8 FOI.
